Assay results published in patent publication US20190135895A1 (published 2019).

B1: truncated monomeric His-tagged mouse FcRn (receptor)
chain 1: SETRPPLMYHLTAVSNPSTGLPSFWATGWLGPQQYLTYNSLRQEADPCGAWMWENQVSWYWEKETTDLKSKEQLFLEALKTLEKILNGTYTLQGLLGCELASDNSSVPTAVFALNGEEFMKFNPRIGNWTGEWPETEIVANLWMKQPDAARKESEFLLNSCPERLLGHLERGRRNLEWKEPPSMRLKARPGNSGSSVLTCAAFSFYPPELKFRFLRNGLASGSGNCSTGPNGDGSFHAWSLLEVKRGDEHHYQCQVEHEGLAQPLTVDLDSSARSS
chain 2: IQKTPQIQVYSRHPPENGKPNILNCYVTQFHPPHIEIQMLKNGKKIPKVEMSDMSFSKDWSFYILAHTEFTPTETDTYACRVKHASMAEPKTVYWDRDM
notes: extracellular domain; Made in a Baculovirus system; also called mFcRn; soluble mFcRn; not shown: His tag

Legend:
[1] = target: truncated monomeric His-tagged human FcRn (human) (UniProt P55899); assay: SPR (BIAcore 3000), hFcRn injected over immobilized HSA-GST variant, pH 6.0, 1:1 Langmuir model
Sequence of truncated monomeric His-tagged human FcRn (human) (P55899 24-297 limits assumed, chain 1 of 2): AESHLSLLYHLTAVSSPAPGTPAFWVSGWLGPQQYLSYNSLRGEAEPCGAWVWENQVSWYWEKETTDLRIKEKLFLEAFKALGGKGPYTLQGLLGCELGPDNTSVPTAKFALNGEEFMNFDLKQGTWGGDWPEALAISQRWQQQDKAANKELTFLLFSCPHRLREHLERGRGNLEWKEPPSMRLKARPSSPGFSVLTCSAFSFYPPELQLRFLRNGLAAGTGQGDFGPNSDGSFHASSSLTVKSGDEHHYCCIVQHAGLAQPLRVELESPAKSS
Sequence of truncated monomeric His-tagged human FcRn (human) (chain, as listed by the source limits assumed, chain 2 of 2): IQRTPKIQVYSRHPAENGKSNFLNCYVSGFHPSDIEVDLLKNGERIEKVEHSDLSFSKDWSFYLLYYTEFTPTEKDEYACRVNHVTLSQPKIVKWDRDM

[2] = target: T1, WT HSA-GST (human, UniProt P08515 1-218 = GST); assay: ELISA, mFcRn captured on rabbit IgG, pH 6.0
T1 construct: Secreted from HEK293E cells; also called WT-GST; WT HSA fusion

Molecule | Kd [1] | binding result [2]
HSA E505Q-GST (from UniProt P08515 1-218) | 0.0231 µM | –
B1 | – | no binding
